Data as given in patent US20120156198A1 (Hoffmann-La Roche, published 2012).

Columns and labels:
Assay in all cases: ELISA, hFc fusion protein captured on anti-human Fc
[1] = target: T1, rhIL-1R3/hFc (R&D Systems, Cat. No. 676-CP) (human, UniProt Q9NPH3 21-359, limits assumed)
T1 construct: Bought; not shown: human Fc (hFc) of the commercial protein
T1 sequence (looked up): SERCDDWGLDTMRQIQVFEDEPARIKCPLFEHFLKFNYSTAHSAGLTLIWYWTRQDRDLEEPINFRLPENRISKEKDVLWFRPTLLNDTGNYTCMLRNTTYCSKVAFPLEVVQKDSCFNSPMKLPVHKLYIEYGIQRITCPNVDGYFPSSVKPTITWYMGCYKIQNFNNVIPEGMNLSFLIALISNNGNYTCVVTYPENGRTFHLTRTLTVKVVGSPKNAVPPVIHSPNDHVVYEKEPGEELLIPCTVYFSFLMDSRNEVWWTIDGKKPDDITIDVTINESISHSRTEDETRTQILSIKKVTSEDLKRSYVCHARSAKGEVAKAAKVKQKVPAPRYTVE
Method: (§1) The test was performed on 384-well microtiter plates (MaxiSorp™, Thermo Scientific Nunc, DK, Cat. No. 464718) at RT. After each incubation step, plates were washed 3 times with PBST. At the beginning, plates were coated with 0.5 μg/ml goat anti-human IgG Fc fragment (Jackson 1 mm. Res., US, Cat. No. 109-006-170) for at least 2 hours (h). Thereafter the wells were blocked with PBS supplemented with 0.2% Tween®-20 and 2% BSA (Roche Diagnostics GmbH, DE) for 1 h. 0.2 μg/ml of recombinant human IL-18Rα-Fc fusion protein (R&D Systems, UK, Cat. No. 816-LR) was captured on plate for 1 h. For testing the binding of antibodies to other proteins of the IL-1 receptor family 0.2 μg/ml of the following recombinant human proteins conjugated to human Fc (hFc) were captured: [0194] rhIL-1RI/hFc (R&D Systems, UK, Cat. No. 269-1R) [0195] rhIL-1sRII/hFc (R&D Systems, UK, Cat. No. 263-2R) [0196] rhIL-1R3/hFc (R&D Systems, UK, Cat. No. 676-CP) [0197] rhIL-2Rα/hFc (R&D Systems, UK, Cat. No. 1020-RL) [0198] rhIL-7Rα/hFc (R&D Systems, UK, Cat. No. 306-IR) [0199] rhIL-15R/hFc (R&D Systems, UK, Cat. No. 147-IR) [0200] rhST-2/hFc (R&D Systems, UK, Cat. No. 523-ST)
(§2) After washing the plate, dilutions of purified antibodies in PBS with 0.05% BSA and 0.2% Tween®-20 were incubated with the receptor proteins for 1 h. Binding of antibodies was detected with 1:2000 diluted horseradish peroxidase (HRP)-conjugates of anti-mouse IgG (GE Healthcare, UK, Cat. No. NA9310V). After 1 h the plates were washed 6 times with PBST and developed with freshly prepared BM Blue® POD substrate solution (BM Blue®: 3,3″-5,5″-Tetramethylbenzidine, Roche Diagnostics GmbH, DE, Cat. No. 11484281001) for 30 minutes at RT. Absorbance was measured at 370 nm. The values were corrected for the control without antibody.

[2] = target: T2, rhIL-2Rα/hFc (R&D Systems, Cat. No. 1020-RL) (human, UniProt P01589 22-213)
T2 construct: Bought; not shown: human Fc (hFc) of the commercial protein
T2 sequence (looked up): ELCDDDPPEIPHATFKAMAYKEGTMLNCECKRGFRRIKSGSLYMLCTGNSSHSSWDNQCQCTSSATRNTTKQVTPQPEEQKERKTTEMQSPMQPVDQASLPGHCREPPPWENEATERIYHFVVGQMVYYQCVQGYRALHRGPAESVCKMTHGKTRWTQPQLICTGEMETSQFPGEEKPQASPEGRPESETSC
Method: as §1, §2

[3] = target: T3, rhST-2/hFc (R&D Systems, Cat. No. 523-ST) (human, UniProt Q01638-2 19-328, limits assumed)
T3 construct: Bought; not shown: human Fc (hFc) of the commercial protein
T3 sequence (looked up): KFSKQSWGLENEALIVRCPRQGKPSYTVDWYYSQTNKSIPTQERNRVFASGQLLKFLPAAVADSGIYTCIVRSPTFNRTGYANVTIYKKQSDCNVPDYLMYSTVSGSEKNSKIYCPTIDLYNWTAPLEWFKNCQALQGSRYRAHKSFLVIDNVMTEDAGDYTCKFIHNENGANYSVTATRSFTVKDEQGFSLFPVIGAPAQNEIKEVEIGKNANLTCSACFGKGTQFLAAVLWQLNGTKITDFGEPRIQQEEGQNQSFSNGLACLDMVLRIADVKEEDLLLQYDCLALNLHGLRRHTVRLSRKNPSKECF
Method: as §1, §2

absorbance at 370 nm (corrected for the control without antibody) [1]: 0.02
absorbance at 370 nm (corrected for the control without antibody) [2]: 0.02
absorbance at 370 nm (corrected for the control without antibody) [3]: 0.02
B1: Mab 2D11 (antibody, V domains shown)
VH: QVQLQQPGAELVKPGASVKMSCKASDYTFTSNWMHWVKQRPGQGLEWIGTIDPSDSYTYYNQKFKGKATLTVDTSSSTAYMHLSSLTSEDSAVYYCTTSGDYDADRYFDVWGAGTTVTVSS
VL: DIVLTQSPASLGVSLGQRATISCRASKSVSTSGDSYMHWYQQKPGQSPKLLIYLASNLESGVPARFSGSGSGTDFTLNIHPVEEEDAATYYCQQSRELPLSFGAGTKLELK
notes: Monoclonal antibody from immunized NMRI mice; detected with anti-mouse IgG1-PE / anti-mouse IgG; also called F20.2D11
